# T1: recombinant human lipoprotein lipase (hLPL) (human, UniProt P06858 28-475)
# T1 sequence: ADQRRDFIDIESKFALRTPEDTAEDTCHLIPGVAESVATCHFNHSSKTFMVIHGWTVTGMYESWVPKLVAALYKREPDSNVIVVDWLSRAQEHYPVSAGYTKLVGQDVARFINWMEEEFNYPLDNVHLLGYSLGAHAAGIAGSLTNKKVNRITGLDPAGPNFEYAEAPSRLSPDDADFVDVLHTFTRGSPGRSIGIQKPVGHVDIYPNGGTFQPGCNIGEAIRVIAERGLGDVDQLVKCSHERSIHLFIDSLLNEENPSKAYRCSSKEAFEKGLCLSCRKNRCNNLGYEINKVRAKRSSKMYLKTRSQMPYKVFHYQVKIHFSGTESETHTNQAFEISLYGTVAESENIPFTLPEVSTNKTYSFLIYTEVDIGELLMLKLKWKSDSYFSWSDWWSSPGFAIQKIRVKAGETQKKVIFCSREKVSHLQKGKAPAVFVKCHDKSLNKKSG
# B1: recombinant mouse GPIHBP1 (mGPIHBP1) (natural protein)
# chain: QEDGDADPEPENYNYDDDDDEEEEEETNMIPGSRDRAPLQCYFCQVLHSGESCNQTQSCSSSKPFCITLVSHSGTDKGYLTTYSMWCTDTCQPIIKTVGGTQMTQTCCQSTLCNIPPWQNPQVQNPLGGRADSPLESGTRHPQGGKFSHPQVVKAAHPQSDGANLPKSGKANQPQG
# Molecular target: T1, recombinant human lipoprotein lipase …
# Assay: pull-down
binder,measurement,value
B1,binding result,binds
